{"source": "paper doi:10.1101/2022.05.14.22275020", "about": "“A homozygous p.(Arg371Ser) mutation in FICD de-regulates AMPylation of the human endoplasmic reticulum chaperone BiP causing infancy-onset diabetes and severe neurodevelopmental delay” (medRxiv, 2022)", "proteins": {"B1": {"name": "wild-type FICD, structured luminal region (residues 104-445) (enzyme, human, UniProt Q9BVA6 104-445, looked up)", "chain": "LEARAALNQALEMKRQGKREKAQKLFMHALKMDPDFVDALTEFGIFSEEDKDIIQADYLYTRALTISPYHEKALVNRDRTLPLVEEIDQRYFSIIDSKVKKVMSIPKGNSALRRVMEETYYHHIYHTVAIEGNTLTLSEIRHILETRYAVPGKSLEEQNEVIGMHAAMKYINTTLVSRIGSVTISDVLEIHRRVLGYVDPVEAGRFRTTQVLVGHHIPPHPQDVEKQMQEFVQWLNSEEAMNLHPVEFAALAHYKLVYIHPFIDGNGRTSRLLMNLILMQAGYPPITIRKEQRSDYYHVLEAANEGDVRPFIRFIAKCTETTLDTLLFATTEYSVALPEAQP", "notes": "human FICD (Fic domain-containing protein), structured luminal region, residues 104-445; purification as in Perera et al., 2019 and 2021; also called FICD^WT; WT; source: E. coli T7 Express lysY/Iq (NEB), purified (Ni-NTA, Ulp1 cleavage, anion exchange, gel filtration); not shown: His6, N-terminal, cleaved; SUMO, N-terminal, cleaved"}, "B2": {"name": "FICD^R371S, structured luminal region (residues 104-445) (enzyme, human, UniProt Q9BVA6 104-445, looked up)", "chain": "LEARAALNQALEMKRQGKREKAQKLFMHALKMDPDFVDALTEFGIFSEEDKDIIQADYLYTRALTISPYHEKALVNRDRTLPLVEEIDQRYFSIIDSKVKKVMSIPKGNSALRRVMEETYYHHIYHTVAIEGNTLTLSEIRHILETRYAVPGKSLEEQNEVIGMHAAMKYINTTLVSRIGSVTISDVLEIHRRVLGYVDPVEAGRFRTTQVLVGHHIPPHPQDVEKQMQEFVQWLNSEEAMNLHPVEFAALAHYKLVYIHPFIDGNGSTSRLLMNLILMQAGYPPITIRKEQRSDYYHVLEAANEGDVRPFIRFIAKCTETTLDTLLFATTEYSVALPEAQP", "notes": "human FICD, structured luminal region, residues 104-445, with the patient variant p.(Arg371Ser) (NM_007076.2:c.1113G>C); Rare human variant found in patients; also called Arg371Ser mutant FICD; p.(Arg371Ser); source: E. coli T7 Express lysY/Iq (NEB), purified (Ni-NTA, Ulp1 cleavage, anion exchange, gel filtration); not shown: His6, N-terminal, cleaved; SUMO, N-terminal, cleaved"}}, "target": "the molecule itself", "assay": "SEC; analytical SEC, Agilent Bio SEC-3 HPLC column, TNT buffer (25 mM Tris pH 8.0, 150 mM NaCl, 1 mM TCEP), 25 °C; proteins diluted to a range of concentrations (given in Figure 3a) and incubated at least 1 h at room temperature; dimer against monomer", "data": [{"protein": "B1", "values": [{"measurement": "stoichiometry N", "result": 2}]}, {"protein": "B2", "values": [{"measurement": "stoichiometry N", "result": 2}]}]}
